# Data as given in US10105442B2, “Treatment of diabetes type 1 using GLP-1 and anti-IL-21” (Novo Nordisk A/S, priority 2014, dated 2018).
# B1: Anti-IL-21: Mouse surrogate anti-IL-21 antibody, mIgG1/kappa isotype, VL SEQ ID NO:26 and VH SEQ ID NO:27, raised against recombinant mouse IL-21 (antibody, V domains shown)
# VH: MNFGPSLIFLVLILKGVQCEVQLVESGGGLVKPGGSLKLSCAASGFTFNRYSMSWVRQSPEKRLEWVAEISVGGSYTQYVDIVTGRFTISRDNAKNTLYLEMSSLRSEDTAMYYCARLYYSGSGDSYYYAMDYWGQGTSVTVSS
# VL: MDFQVQIFSFLLISASVILSRGQTVLIQSPAIMSASPGEKVTMTCSASSSVSYMHWYQQKSGTSPKRWIYDTSKLASGVPARFSGSGSGTSYSLTISSMEAEDAATYYCQQWNSNPPTFGGGTKLEMK
# Biological target: T1, mIL-21 (Mus musculus, UniProt Q9ES17)
# T1 construct: purchased
# Test: Inhibition of IL-21-driven B cell proliferation (Assay IV)
# Assay type: cell-based
# Conditions: mouse B cells stimulated with anti-IgM, anti-CD40 and rmIL-21, 72 h, 3H-thymidine incorporation
# Description: Assay (IV): Inhibition of IL-21-Driven B Cell Proliferation.
# As a functionality test, anti-mIL-21 is tested for its ability to neutralize mIL-21-driven B cell proliferation. Equivalent assays may be performed for testing of anti-hIL-21 antibodies, such as Example 10 of WO2013/164021 that utilizes PBMC's isolated from healthy human volunteers. Further information on ability to inhibit B-cell maturation may be obtained as described in Example 6 and 12 of WO2012/098113.
# Mouse B cells are purified from spleens harvested from 6-8 weeks old wild-type C57BL/6 mice. Single cell splenocytes are prepared by forcing the organ through a 70 μm cell strainer into PBS. B cells were purified by anti-B220 positive selection by magnetic beads, using magnetic beads and an AutoMACS cell separator (Miltenyi Biotec) according to manufacturer's protocol.
# Cells are stimulated in vitro with: a) soluble anti-IgM (1 μg/mL), b) soluble anti-CD40 (1 μg/mL) and c) mIL-21 (25, 50, 100 ng/mL). 10^5 purified B cells were added per well in a 96-well-plate and stimulated for 72 h at 37° C. with soluble IgM (1 μg/mL), soluble anti-CD40 IgM (1 μg/mL) and rmIL-21 (100 ng/mL) in the presence of an anti-IL-21 antibody or an isotype control antibody. For the last 18 h of incubation 3H-thymidine is added to each well and thymidine-incorporation (proliferation) was measured on a Top Counter liquid scintilator (Perkin Elmer)
molecule,measurement,value
B1,Inhibition of mIL-21-driven B-cell proliferation (in words),capable of inhibiting B-cell proliferation in a concentration dependent manner
